Reference: patent publication US20220356230A1 (published 2022)

T1: MERS-CoV (NCoV/Novel coronavirus) Spike Protein fragment (RBD, aa 367-606, His Tag) (Sino 40071-V08B1) (MERS-CoV, UniProt K9N5Q8 367-606)
T1 sequence: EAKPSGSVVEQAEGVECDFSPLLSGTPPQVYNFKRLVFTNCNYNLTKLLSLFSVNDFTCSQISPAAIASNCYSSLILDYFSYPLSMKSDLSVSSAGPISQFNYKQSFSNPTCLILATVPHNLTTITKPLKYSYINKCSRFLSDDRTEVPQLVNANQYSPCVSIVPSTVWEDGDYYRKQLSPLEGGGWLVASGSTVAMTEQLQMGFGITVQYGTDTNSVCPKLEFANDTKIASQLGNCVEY

T2: MERS-CoV (NCoV/Novel coronavirus) Spike Protein S1 Protein (aa 1-725, His Tag) (Sino 40069-V08B1) (MERS-CoV, UniProt K9N5Q8 18-725)
T2 sequence: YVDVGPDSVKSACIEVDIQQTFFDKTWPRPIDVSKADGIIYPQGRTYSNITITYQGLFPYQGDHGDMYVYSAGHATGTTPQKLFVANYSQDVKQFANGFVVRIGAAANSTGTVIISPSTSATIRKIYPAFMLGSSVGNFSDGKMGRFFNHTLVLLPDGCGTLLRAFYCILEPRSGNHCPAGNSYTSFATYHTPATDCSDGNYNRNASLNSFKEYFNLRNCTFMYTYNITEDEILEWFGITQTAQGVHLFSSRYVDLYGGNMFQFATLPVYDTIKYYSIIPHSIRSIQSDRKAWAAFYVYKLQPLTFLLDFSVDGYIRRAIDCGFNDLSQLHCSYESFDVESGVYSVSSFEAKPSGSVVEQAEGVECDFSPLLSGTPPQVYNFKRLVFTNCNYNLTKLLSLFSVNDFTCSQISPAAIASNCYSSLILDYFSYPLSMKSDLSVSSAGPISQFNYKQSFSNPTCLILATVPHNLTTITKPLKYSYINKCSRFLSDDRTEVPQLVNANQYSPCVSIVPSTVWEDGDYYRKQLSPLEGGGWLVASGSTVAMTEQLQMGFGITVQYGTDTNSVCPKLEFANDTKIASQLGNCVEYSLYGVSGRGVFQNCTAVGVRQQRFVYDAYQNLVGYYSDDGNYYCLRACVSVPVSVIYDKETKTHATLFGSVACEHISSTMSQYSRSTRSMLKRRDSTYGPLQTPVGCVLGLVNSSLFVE


How the values were obtained:
[1] = molecular target: T1, MERS-CoV (NCoV/Novel coronavirus) Spike …; assay: Luminex bead assay, supernatant
[2] = molecular target: T2, MERS-CoV (NCoV/Novel coronavirus) Spike …; assay: Luminex bead assay, supernatant

Binder	Binding signal (MFI) [1] [MFI]	Binding signal (MFI) [2] [MFI]
mAb10982 (antibody, V domains shown) VH: EVQLVESGGGLVQPGGSLRLSCAASGLTVSSNYMSWVRQAPGKGLEWVSVIYSGGTTYYADSVKGRFTISRHNSKNTLSLQMNSLRAEDTAVYYCARGEGANYYGMDVWGQGTTVTVSS VL: QSVLTQPPSVSGAPGQRVTISCTGSSSNIGTGYDVHWYQQLPGTAPKLLIYGNSNRPSGVPDRFSGSKSGTSASLAITGLQAEDEADYYCQSYDSSLSGYVVFGGGTKLTVLG	29	
mAb10913 (antibody, V domains shown) VH: EVQLVESGGGLVQPGGSLRLSCAASGFTFRNYEMNWVRQAPGKGLEWVSYITSSGSTMYYADSVKGRFTISRDNAKNSLYLQMNSLRAEDTAVYYCARDGFYYYYAMDVWGQGTTVTVSS VL: QSVLTQPPSVSAAPGQKVTISCSGSSSNIGNNYVSWYQQLPGTAPKLLIYDNNKRPSGIPDRFSGSKSGTSATLGITGLQTGDEADYYCGTWDSSLSVGRVFGTGTKVTVLG	34	26
mAb10914 (antibody, V domains shown) VH: EVQLVESGGGLVQPGGSLRLSCAASGLIVSRNYMIWVRQAPGKGLEWVSVIYSGGSTFYADSVKGRFTISRHNSKNTLYLQMNSLRAEDTAVYYCARDLGTGGMDVWGQGTTVTVSS VL: DIQLTQSPSFLSASVGDRVTITCWASQGISSYLAWYQQKPGKAPKLLIYAASTLQSGVPSRFSGSGSGTEFTLTISSLQPEDFATYYCQQLNSYPLTFGGGTKVEIKR	31	23
mAb10957 (antibody, V domains shown) VH: EVQLVESGGGLVQPGGSLRLSCAASGVTVSSNYMSWVRQAPGKGLEWVSVIYSGGSTFYADSVKGRFTISRDNSKNTLFLQMNSLRIEDTAVYYCARDLGPYGMDVWGQGTTVTVSS VL: DIQLTQSPSFLSASVGDRVTITCRASQGISSYLAWYQQKPGKAPKLLIYAASTLQSGVPSRFSGSGSGTQFILTISSLQPEDFATYYCQQLNSYPGFTFGPGTKVDIKR		19
mAb10969 (antibody, V domains shown) VH: QVQLVESGGGVVQPGRSLRLSCAASGFTFSSYAMHWVRQAPGKGLEWVAVISYDGSNKYYADSVKGRFTISRDNSKNTLYLQMNSLRAEDTAVYYCARDGRTITMVRGVIDDAFDIWGQGTMVTVSS VL: not shown		19
mAb10964 (antibody, V domains shown) VH: QVQLQESGPGLVKPSETLSLTCTVSGGSINNYYWIWIRQPPGKGLEWIGYIYHSGSTNYNPSLKSRVTISVDTSKNQFSLKVSSVTAADTAVYYCANMVRGVYEDDYWGQGTLVTVSS VL: DIQMTQSPSSLSASVGDRVTITCRASQSISNYLNWYQQKPGKAPKLLIFAASSLRSGVPSRFSGSGSGTDFTLTISSLHPEDFATYYCQQNYNTPLTFGPGTKVDIKR		19
mAb10971 (antibody, V domains shown) VH: EVQLVESGGGLIQPGGSLRLSCAASGVTVSSNYMSWVRQAPGKGLEWVSVIYSGGSTFYSDSVKGRFSISRDNSKNTLYLQMNSLRAEDTAVYYCARDLYYYGMDVWGQGTTVTVSS VL: DIQLTQSPSFLSASVGDRVTITCRASQGISTYLAWYQQKPGKAPKLLIYAASTLQSGVPSRFSGSGSGTEFTLTISSLQPEDFATYYCQQLDSYPGLTFGGGTKVEIKR		19
mAb10935 (antibody, V domains shown) VH: EVQLVESGGGLVQPGGSLRLSCAASGFTVSSNYMSWVRQAPGKGLEWVSLIYSGGSTYYADSVKGRFTISRHNSKNTLYLQMNSLRSEDTAVYYCARVPLGDYYYGMDVWGQGTTVTVSS VL: DIQMTQSPSSLSASVGDRVTITCQASQDINKYLNWYQQKPGKAPKLLIYDASNLETGVPSRFSGSGSGTDFTFTISSLQPEDIATYYCQQSDNLPLTFGGGTKVEIKR	25	
mAb10921 (antibody, V domains shown) VH: EVQLVESGGGLVQPGGSLRLSCAASGITVSSNYMSWVRQAPGKGLEWVSVIYSGGSTFYADSVKGRFTISRHNSKNTLYLQMNSLRAEDTAVYYCARERNFDAFDIWGQGTMVTVSS VL: DIQMTQSPSSVSASVGDRVTITCRASQGISSWLAWYQQKPGKAPKLLIYAASSLQSGVPSRFSGSGSGTDFTLTISSLQPEDFATYYCQQANSFPLFTFGPGTKVDIKR	23	
